Measurements taken from the supplement of paper PMC9170038.

System: MS2 coat protein
Experiment: apparent KD of MS2 coat protein; designed switch direction (-1 OFF switch, 1 ON switch): -1; higher = weaker reporter binding
Outline: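 An oligonucleotide input, 200 uM small-molecule ligand, or no input was present during titration of SNAP-549-labelled MS2 coat protein, which was doubled from 0.7 or 1.5 nM to 3 µM. Designed RNA switches had been transcribed on Illumina chips by stalled E. coli RNA polymerase. Apparent KD per design is the median over clusters of curves fitted to normalised cluster fluorescence.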

[1] = input ligand: microRNA oligo, concentration not stated
[2] = Eterna round: R95, input ligand: microRNA oligo, concentration not stated
[3] = Eterna round: R95, input ligand: FMN 200 uM
[4] = Eterna round: R95, input ligand: none

Sequence | apparent KD of MS2 coat protein (input ligand: FMN 200 uM) | apparent KD of MS2 coat protein [1] | apparent KD of MS2 coat protein (input ligand: none) | apparent KD of MS2 coat protein [2] | apparent KD of MS2 coat protein [3] | apparent KD of MS2 coat protein [4]
AUCAGCUCGUGAGGAUAUAUAUAUACAUGAGGAUCACCCAUGUUAGAUCAGCUUCGGCAGUAUAUAUAGAAGGCACGAGCUGAU [ENG2/15-A2] (Eterna round: R96, puzzle: Exclusion NG 2) | 0.233 µM | 0.0906 µM | 0.0796 µM | – | – | –
ACAUGUCAUCUAGGAUAUUGGACACAUGAGGAUCACCCAUGUACCCGGAGGCUUUACUAUGAGUUCGAGAAGGAGAUGUACAUG [Ex NG2 #72] (Eterna round: R96, puzzle: Exclusion NG 2) | 0.133 µM | 0.0386 µM | 0.0579 µM | – | – | –
UUUCCCGUUCAGGCUGGAAACAUGAGGAUCACCCAUGUUCAAUCGGUUCUGUUAGCUGCUCGUCUUUUACACUUUCC [Eternabot (L1) Solution 39] (Eterna round: R97, puzzle: Sensor, turn-off variant 1) | 0.0205 µM | – | 0.0203 µM | – | – | –
AGCAUGAGAGAGGAUAUGGUCGCCGCAACAUGACCAGAAGGCUCAACAUGAGGAUCACCCAUGUGGCCCGGCUC [Eternabot (L1) Solution 33] (Eterna round: R97, puzzle: Exclusion 6) | 0.0332 µM | – | 0.0195 µM | – | – | –
AAUAACAGAGGAUAUACUAUUUUAUGUGUUUGUUGUUUUGAACAUGAGGAUCACCCAUGUAGAAGGCUGAGUAA [JMF 40] (puzzle: Exclusion 2) | – | – | – | 0.0242 µM | – | –
GCAGCAACUCUAAUCAAAACCACAUGAGGAUCACCCAUGUCUCAGGAUAUGGUCUGGAUUACAGGCCAGAAGGGAGAAAGCUGC [Eli exng3 - 050] (Eterna round: R96, puzzle: Exclusion NG 3) | 0.0133 µM | 0.0106 µM | 0.0194 µM | – | – | –
UGCAGACGAGGAUAUAAACGAUAUAACAUGAGGAUCACCCAUGUACGAUCGAAUGAUCGUUUAGAAGGCGUCUGCU [E5/10-A3] (Eterna round: R97, puzzle: Exclusion 5) | 0.0161 µM | – | 0.0162 µM | – | – | –
GUGCCGCGAGGAUAUACAGACGGGUCCAGGGCGUGUCUCGGACUUGAGGAUCACCCAAGUAGAAGGCGUCUCAG [salish99_ex2_r4_615] (Eterna round: R97, puzzle: Exclusion 2) | 0.0776 µM | – | 0.0267 µM | – | – | –
AUAAUGUGAGGAUAUAUGCAUCACGGUGAUACACCGUGAUGAUAGAAGGUACAUGAGGAUCACCCAUGUAGGGC [Mod of Anonveat 16 - Jieux - Exclusion 4] (Eterna round: R97, puzzle: Exclusion 4) | 0.0512 µM | – | 0.0378 µM | – | – | –
UCAAGUAUGUAGGAUAUGAUGUGAUUAUACAUAUCAGAAGGACGUACAUGAGGAUCACCCAUGUAACUUGCAUG [Exclusion 6 - B - 12:c] (puzzle: Exclusion 6) | – | – | – | 0.0591 µM | 0.0298 µM | 0.0526 µM
GAAAAGGUAGGAUAUACUAAAAAAAAGGGUAGAAAAAAAACACAUGAGGAUCACCCAUGUAGAAGGACCAAAAG [salish99_ex2_r3_058] (puzzle: Exclusion 2) | – | – | – | 0.0318 µM | 0.0482 µM | 0.0208 µM
CACCCACAUGAGGAUCACCCAUGUGAGGAUAUGAUACUAUGUACUUCGGUACAUAGUAUCAGAAGGCACAGGUG [Ex1-3: 61] (Eterna round: R96, puzzle: Exclusion 1) | 0.102 µM | 0.0257 µM | 0.028 µM | – | – | –
CUAGAGUCAGGAUAUACGAGAUCGAAAGAUCGGCGAUCCCUACAUGAGGAUCACCCAUGUAGAAGGGACUCUAG [Mod 11 - Jieux - Exclusion 2] (Eterna round: R97, puzzle: Exclusion 2) | 0.0283 µM | – | 0.0138 µM | – | – | –
UCAAGUAUGUAGGAUAUCGAUGUCUUCGGACAUCGAGAAGGACGUACAUGAGGAUCACCCAUGUAACUUGCAUG [Exclusion 6 - B - 10:a] (puzzle: Exclusion 6) | – | – | – | 0.0552 µM | – | –
AGGAUGUGAGGAUAUCCAUCCCGCGAAUGCGGGUAAUAAAUGGAGAAGGCACAUGAGGAUCACCCAUGUGAUGA [Laleatus] (Eterna round: R97, puzzle: Exclusion 4) | 0.978 µM | – | 0.0478 µM | – | – | –
CCCAGUUAGGAAGGAUAUUGUACAUGAGGAUCACCCAUGUAAUAAAUGAGGAUCUCGGAUGUCUACAAGAAGGUCCGGAUAGGC [Ostracism 11 - Jieux - Exclusion NG 2] (Eterna round: R96, puzzle: Exclusion NG 2) | 0.0659 µM | 0.0343 µM | 0.0445 µM | – | – | –
GAUAGAGAGCAGGAUAUCUUAGAAAUGUAUUAUAGAGAAGGGCUCACAUGAGGAUCACCCAUGUGGUCCUAGAU [JL Dibiri mod 15] (puzzle: Exclusion 6) | – | – | – | 0.016 µM | – | –

Sequence | apparent KD of MS2 coat protein (input ligand: FMN 200 uM) | apparent KD of MS2 coat protein [1] | apparent KD of MS2 coat protein (input ligand: none) | apparent KD of MS2 coat protein [2] | apparent KD of MS2 coat protein [3] | apparent KD of MS2 coat protein [4]
AAUACACAUGAGGAUCACCCAUGUCAGGAUAUGCGGAAUAAGACUUUGGUCGAUAAAUGUAGAAGGGACGUUUA [Dr. RN-Ant/Googlypuddle] (puzzle: Exclusion 1) | – | – | – | 0.0277 µM | – | –
ACCCAGUCAGGAUAUCCGGAGUUCCGCGAUGGCGGACGGUAGGAGAAGGGACAUGAGGAUCACCCAUGUAGAAA [EX4 B.17] (Eterna round: R97, puzzle: Exclusion 4) | 0.179 µM | – | 0.0347 µM | – | – | –
GUUUGCACGCUGCGGUCCUACAUGAGGAUCACCCAUGUGGUCUGGUGGCGUGGGUCGCCGGACUUGGCUCGUCUUGG [salish99_S_TOV1_R5_039] (Eterna round: R97, puzzle: Sensor, turn-off variant 1) | 0.015 µM | – | 0.0148 µM | – | – | –
UGCUACGGAGGAUAUACAUGAGGAUCACCCAUGUGAUAGAUUAUGCCGAGAGGCUAGUGUAGAAGGCCGUAGCU [jl-ex3-4.14 jl mod] (Eterna round: R97, puzzle: Exclusion 3) | 0.683 µM | – | 0.189 µM | – | – | –
GAUAUGUAAGGAUAUCGUGCAAGUUUCAAAAGAGGCUUGUGCGAGAAGGUACAUGAGGAUCACCCAUGUAGGUU [Omei Ex4 B14] (Eterna round: R97, puzzle: Exclusion 4) | 0.116 µM | – | 0.0296 µM | – | – | –
CCCAGUUAUGAAGGAUAUUGUACAUGAGGAUCACCCAUGUAAUAAAUGAGGAUUUCGGGUGUCUACAAGAAGGUCAGGAUAGGC [Ostracism 14 - Jieux - Exclusion NG 2] (Eterna round: R96, puzzle: Exclusion NG 2) | 0.0828 µM | 0.0436 µM | 0.0606 µM | – | – | –
UACAUGAGGAUCACCCAUGUUUUGUCGUGUAUGGUAUUUAUCUAGGAUAUCAAGUUAUUAAUUUAUGAGAAGGAGAAUAUUAAU [JMF's solution 32] (Eterna round: R96, puzzle: Exclusion NG 3) | 0.0439 µM | 0.0274 µM | 0.0421 µM | – | – | –
AGAGAGAUAGGAUAUACGUGGUUUUCUCAGGUCUAAGUUCAACAUGAGGAUCACCCAUGUAGAAGGAUCAAAAG [EX2 C.14] (Eterna round: R97, puzzle: Exclusion 2) | 0.69 µM | – | 0.156 µM | – | – | –
UGUAUAGGAGUGAGGAUAUGGAAACUGGAAAAGGACCAGAAGGCACAUGAGGAUCACCCAUGUGGUUCUCAAGA [Eternabot (Original) Solution 50] (Eterna round: R97, puzzle: Brourd's mod of Exclusion 4) | 1.21 µM | – | 0.373 µM | – | – | –
AAGAAUUUGCAGGAUAUCUACCACGAUAGGGAUAGAGAAGGGUAAACAUGAGGAUCACCCAUGUAGUAGGUCCG [Eternabot (L2) Solution 91] (Eterna round: R97, puzzle: Exclusion 6) | 0.0613 µM | – | 0.115 µM | – | – | –
CCCUCACAUGAGGAUCACCCAUGUCAGGAUAUAGUGCGAUUGUCGAUAUGAAAUUGCAUUAGAAGGGAUUAGGC [Eternabot (L1) Solution 67] (Eterna round: R97, puzzle: Exclusion 1) | 0.0248 µM | – | 0.0175 µM | – | – | –
UCUUUGUCAGGAUAUCGUGCAUACAACGAAAGUUCUAUGUGCGAGAAGGGACAUGAGGAUCACCCAUGUUACGG [Omei Ex4 A4] (Eterna round: R97, puzzle: Exclusion 4) | 0.244 µM | – | 0.358 µM | – | – | –
GUUAAACAUGAGGAUCACCCAUGUAAGGAUAUGCUGAGGUAGAGAUGAAGUGAAUGAAGCAGAAGGUACAAUUG [Mat - Mod of JL D55] (puzzle: Exclusion 1) | – | – | – | 0.0818 µM | 0.0626 µM | 0.0788 µM
CUGCUGAAGCUUUGCUUUAGUCGUACAUGAGGAUCACCCAUGUAGGAUAUGGUAGGCUUUGCUUACUAGAAGGAUAGAGUGAUC [salish99_ExNG3_r04_604] (Eterna round: R96, puzzle: Exclusion NG 3) | 0.072 µM | 0.0824 µM | 0.0619 µM | – | – | –
CCCACGUCAGGAUAUCUAAAGGUCCGAAAUAACGGGACUGCAGAGAAGGGACAUGAGGAUCACCCAUGUCCUCG [EX4 C.21] (Eterna round: R97, puzzle: Exclusion 4) | 0.027 µM | – | 0.018 µM | – | – | –
AGCGCCAUCGUGAGAUGGCGUAUUACAUGAGGAUCACCCAUGUAGGAUAUCGAUUGCUUUGCAGUCGAGAAGGACAUGUCCUAG [JL ENG3 3.80 Mod F] (Eterna round: R96, puzzle: Exclusion NG 3) | 0.0383 µM | 0.0234 µM | 0.0279 µM | – | – | –
AUGUUGCGAGGAUAUAUAUGGAGGUUAAAAUUUGAUAUGGAACAUGAGGAUCACCCAUGUAGAAGGUGCAUAAC [JR_Ex2_Sub039] (Eterna round: R97, puzzle: Exclusion 2) | 0.155 µM | – | 0.0575 µM | – | – | –
